These results are taken from paper PMC12079402 (Protein Science : A Publication of the Protein Society, 2025).

B1: TAZ1 domain of HAC1, HAC1-TAZ1(626-724) (domain or fragment, Arabidopsis, UniProt Q9C5X9 626-724, looked up)
chain: GNGNRDPRFKNQQKWLLFLRHARHCKAPEGKCPDRNCVTVQKLWKHMDSCAAPQCSYPRCLPTKTLINHHRSCKEPNCPVCIPVKAYLQQQANARSLAR
B2: RST domain of Radical-Induced Cell Death1 (RCD1), RCD1-RST(499-572) (domain or fragment, Arabidopsis, UniProt Q8RY59 499-572, looked up)
chain: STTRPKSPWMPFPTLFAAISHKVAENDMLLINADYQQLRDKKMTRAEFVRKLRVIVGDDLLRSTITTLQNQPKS
B3: ACID domain of MEDIATOR subunit 25 (MED25), MED25-ACID(532-680) (domain or fragment, Arabidopsis, UniProt Q7XYY2 532-680, looked up)
chain: SNSSAPNMQLSQPSSGAMQTSQSKYVKVWEGNLSGQRQGQPVLITRLEGYRSASASDSLAANWPPTMQIVRLISQDHMNNKQYVGKADFLVFRAMSQHGFLGQLQDKKLCAVIQLPSQTLLLSVSDKACRLIGMLFPGDMVVFKPQIPN
B4: ANAC046(172-222, S175W), fragment containing AD1/M1-2 (domain or fragment, Arabidopsis thaliana, UniProt Q9SQQ6 172-222, looked up)
chain: NAPWTTITTTKQLSRIDSLDNIDHLLDFSSLPPLIDPGFLGQPGPSFSGAR
B5: TAZ2 domain of HAC1, HAC1-TAZ2(1574-1697) (domain or fragment, Arabidopsis, UniProt Q9C5X9 1574-1697, looked up)
chain: NAQNKEARQLRVLQLRKMLDLLVHASQCRSAHCQYPNCRKVKGLFRHGINCKVRASGGCVLCKKMWYLLQLHARACKESECHVPRCRDLKEHLRRLQQQSDSRRRAAVMEMMRQRAAEVAGGSG
B6: ANAC046(300-338), fragment containing AD2/M5 with its context (domain or fragment, Arabidopsis thaliana, UniProt Q9SQQ6 300-338, looked up)
chain: ATPEISSYPMMMNPAMMDGSKSACDGLDDLIFWEDLYTS
B7: KIX domain of HAC1, HAC1-KIX(43-134) (domain or fragment, Arabidopsis, UniProt Q9C5X9 43-134, looked up)
chain: GPSRVSPVDNDILKLRQAMRIRIFNILQQKQPSPADEASKAKYMDVARRLEEGLFKIANTKEDYVNPSTLEPRLASLIKGRQLNNYNQRHAN

The target in assay [1] is T1, ANAC046 intrinsically disordered region, ANAC046(172-338) (Arabidopsis thaliana, UniProt Q9SQQ6 172-338).
T1 sequence (looked up): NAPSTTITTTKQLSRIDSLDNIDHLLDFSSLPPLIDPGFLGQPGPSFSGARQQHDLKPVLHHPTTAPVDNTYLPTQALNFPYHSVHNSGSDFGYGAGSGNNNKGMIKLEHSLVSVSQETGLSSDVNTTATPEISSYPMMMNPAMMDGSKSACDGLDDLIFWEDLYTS
The assay is described as follows: ITC.

In assay [2] the target is B6. The experiment in a line: ITC.
The target of assay [3] is T1, ANAC046 intrinsically disordered …. The assay is described as follows: ITC. The source holds these as a separate data set.
Assay [4] shares this target. The assay is described as follows: NMR titration.
Assay [5] deals with B1. The assay is described as follows: NMR titration.
Assay [6] has as its target B2. The experiment in a line: NMR titration.
Assay [7] concerns the target B1. The experiment in a line: ITC.
Assay [8] addresses B2. The experiment in a line: ITC.

Regarding B1, in assay [1], the “dH, site AD1/M1-2 (two-site fit)” value was -15.5 kcal/mol and the “dH, site AD2/M5 (two-site fit)” value was -5.98 kcal/mol. In assay [2], the dH was -5.98 kcal/mol and the “stoichiometry N” value turned out to be 0.97.
Turning to B2, in assay [3], the equilibrium dissociation constant (Kd) is 0.2 µM and the dH is -5.5 kcal/mol.
B3: the binding result in assay [4] was “binds”.
Consider B4, for which the Kd in assay [5] came to 112 µM; in assay [6] it was 148 µM.
B5: in assay [4], the binding result is reported as “binds”.
Consider B6, for which, in assay [7], the affinity, expressed as Kd, was 6 µM. Also, in assay [8], the Kd worked out at 0.12 µM, the dH was -7.41 kcal/mol and the “stoichiometry N” value turned out to be 0.8.
As to B7, the binding result in assay [4] is on record as “binds”.
